{"source": "the Human Domainome abundance scans (Beltran et al. 2025)", "parents": {"B1": {"name": "Tumor protein 63, residues 545 to 610; numbered along this chain, Q9H3D4 (parent)", "chain": "TDCSIVSFLARLGCSSCLDYFTTQGLTTIYQIEHYSMDDLASLKIPEQFRHAIWKGILDHRQLHEF"}, "B2": {"name": "Myocardin-related transcription factor A, residues 341 to 383; numbered along this chain, Q969V6 (parent)", "chain": "GALPANLDDMKVAELKQELKLRSLPVSGTKTELIERLRAYQDQ"}}, "note": "± gives the uncertainty stated by the source."}
{"variants_of": "B1", "assay": "abundance fitness (aPCA) (normalised: wild type 0, dead -1); higher = more abundant; growth selection in yeast, the domain comes from the species named", "conditions": "Homo sapiens"}
{"variant": "TDCSIVSFLARLGCSSCLDYFTTQGLTTIYQIEHYSMDDLASLKIPEQFRHAIWKGILDHRQLHES", "note": "[F66S]", "abundance fitness": "-0.019 ± 0.046"}
{"variant": "TDCSIVSFLARLGCSSCLDYFTTQGLTTIYQIEHYSMDDLASLKIPEQFRHAIWKGILDHRQLHEV", "note": "[F66V]", "abundance fitness": "0.071 ± 0.051"}
{"variant": "TDCSIVSFLARLGCSSCLDYFTTQGLTTIYQIEHYSMDDLASLKIPEQFRHAIWKGILDHRQLHEA", "note": "[F66A]", "abundance fitness": "0.05 ± 0.12"}
{"variant": "TDCSIVSFLARLGCSSCLDYFTTQGLTTIYQIEHYSMDDLASLKIPEQFRHAIWKGILDHRQLHEL", "note": "[F66L]", "abundance fitness": "-0.022 ± 0.072"}
{"variant": "TDCSIVSFLARLGCSSCLDYFTTQGLTTIYQIEHYSMDDLASLKIPEQFRHAIWKGILDHRQLHER", "note": "[F66R]", "abundance fitness": "-0.013 ± 0.068"}
{"variant": "TDCSIVSFLARLGCSSCLDYFTTQGLTTIYQIEHYSMDDLASLKIPEQFRHAIWKGILDHRQLHEE", "note": "[F66E]", "abundance fitness": "-0.678 ± 0.22"}
{"variant": "TDCSIVSFLARLGCSSCLDYFTTQGLTTIYQIEHYSMDDLASLKIPEQFRHAIWKGILDHRQLHEH", "note": "[F66H]", "abundance fitness": "0.027 ± 0.056"}
{"variant": "TDCSIVSFLARLGCSSCLDYFTTQGLTTIYQIEHYSMDDLASLKIPEQFRHAIWKGILDHRQLHEP", "note": "[F66P]", "abundance fitness": "0.086 ± 0.063"}
{"variant": "TDCSIVSFLARLGCSSCLDYFTTQGLTTIYQIEHYSMDDLASLKIPEQFRHAIWKGILDHRQLHEM", "note": "[F66M]", "abundance fitness": "0.028 ± 0.085"}
{"variant": "TDCSIVSFLARLGCSSCLDYFTTQGLTTIYQIEHYSMDDLASLKIPEQFRHAIWKGILDHRQLHEI", "note": "[F66I]", "abundance fitness": "-0.011 ± 0.051"}
{"variant": "TDCSIVSFLARLGCSSCLDYFTTQGLTTIYQIEHYSMDDLASLKIPEQFRHAIWKGILDHRQLHEG", "note": "[F66G]", "abundance fitness": "-0.214 ± 0.068"}
{"variant": "TDCSIVSFLARLGCSSCLDYFTTQGLTTIYQIEHYSMDDLASLKIPEQFRHAIWKGILDHRQLHED", "note": "[F66D]", "abundance fitness": "-0.119 ± 0.46"}
{"variant": "TDCSIVSFLARLGCSSCLDYFTTQGLTTIYQIEHYSMDDLASLKIPEQFRHAIWKGILDHRQLHEY", "note": "[F66Y]", "abundance fitness": "0.044 ± 0.1"}
{"variant": "TDCSIVSFLARLGCSSCLDYFTTQGLTTIYQIEHYSMDDLASLKIPEQFRHAIWKGILDHRQLHEC", "note": "[F66C]", "abundance fitness": "0.033 ± 0.2"}
{"variant": "TDCSIVSFLARLGCSSCLDYFTTQGLTTIYQIEHYSMDDLASLKIPEQFRHAIWKGILDHRQLHYF", "note": "[E65Y]", "abundance fitness": "-0.184 ± 0.079"}
{"variant": "TDCSIVSFLARLGCSSCLDYFTTQGLTTIYQIEHYSMDDLASLKIPEQFRHAIWKGILDHRQLHTF", "note": "[E65T]", "abundance fitness": "-0.049 ± 0.066"}
{"variant": "TDCSIVSFLARLGCSSCLDYFTTQGLTTIYQIEHYSMDDLASLKIPEQFRHAIWKGILDHRQLHVF", "note": "[E65V]", "abundance fitness": "-0.093 ± 0.039"}
{"variants_of": "B2", "assay": "abundance fitness (aPCA) (normalised: wild type 0, dead -1); higher = more abundant; growth selection in yeast, the domain comes from the species named", "conditions": "Homo sapiens"}
{"variant": "GLLPANLDDMKVAELKQELKLRSLPVSGTKTELIERLRAYQDQ", "note": "[A2L]", "abundance fitness": "0.208 ± 0.11"}
{"variant": "GCLPANLDDMKVAELKQELKLRSLPVSGTKTELIERLRAYQDQ", "note": "[A2C]", "abundance fitness": "-0.077 ± 0.092"}
{"variant": "GQLPANLDDMKVAELKQELKLRSLPVSGTKTELIERLRAYQDQ", "note": "[A2Q]", "abundance fitness": "0.34 ± 0.32"}
{"variant": "GTLPANLDDMKVAELKQELKLRSLPVSGTKTELIERLRAYQDQ", "note": "[A2T]", "abundance fitness": "0.161 ± 0.16"}
{"variant": "GKLPANLDDMKVAELKQELKLRSLPVSGTKTELIERLRAYQDQ", "note": "[A2K]", "abundance fitness": "0.588 ± 0.2"}
{"variant": "GSLPANLDDMKVAELKQELKLRSLPVSGTKTELIERLRAYQDQ", "note": "[A2S]", "abundance fitness": "0.209 ± 0.094"}
{"variant": "GGLPANLDDMKVAELKQELKLRSLPVSGTKTELIERLRAYQDQ", "note": "[A2G]", "abundance fitness": "0.035 ± 0.061"}
{"variant": "GRLPANLDDMKVAELKQELKLRSLPVSGTKTELIERLRAYQDQ", "note": "[A2R]", "abundance fitness": "0.034 ± 0.12"}
{"variant": "GELPANLDDMKVAELKQELKLRSLPVSGTKTELIERLRAYQDQ", "note": "[A2E]", "abundance fitness": "0.136 ± 0.34"}
{"variant": "GFLPANLDDMKVAELKQELKLRSLPVSGTKTELIERLRAYQDQ", "note": "[A2F]", "abundance fitness": "0.024 ± 0.15"}
{"variant": "GPLPANLDDMKVAELKQELKLRSLPVSGTKTELIERLRAYQDQ", "note": "[A2P]", "abundance fitness": "-0.041 ± 0.12"}
{"variant": "GMLPANLDDMKVAELKQELKLRSLPVSGTKTELIERLRAYQDQ", "note": "[A2M]", "abundance fitness": "0.433 ± 0.09"}
{"variant": "GWLPANLDDMKVAELKQELKLRSLPVSGTKTELIERLRAYQDQ", "note": "[A2W]", "abundance fitness": "-0.145 ± 0.1"}
{"variant": "GDLPANLDDMKVAELKQELKLRSLPVSGTKTELIERLRAYQDQ", "note": "[A2D]", "abundance fitness": "0.26 ± 0.12"}
{"variant": "GARPANLDDMKVAELKQELKLRSLPVSGTKTELIERLRAYQDQ", "note": "[L3R]", "abundance fitness": "-0.021 ± 0.054"}
{"variant": "GAIPANLDDMKVAELKQELKLRSLPVSGTKTELIERLRAYQDQ", "note": "[L3I]", "abundance fitness": "0.144 ± 0.092"}
{"variant": "GAFPANLDDMKVAELKQELKLRSLPVSGTKTELIERLRAYQDQ", "note": "[L3F]", "abundance fitness": "0.243 ± 0.084"}
{"variant": "GAAPANLDDMKVAELKQELKLRSLPVSGTKTELIERLRAYQDQ", "note": "[L3A]", "abundance fitness": "-0.431 ± 0.061"}
{"variant": "GAMPANLDDMKVAELKQELKLRSLPVSGTKTELIERLRAYQDQ", "note": "[L3M]", "abundance fitness": "-0.022 ± 0.098"}
{"variant": "GACPANLDDMKVAELKQELKLRSLPVSGTKTELIERLRAYQDQ", "note": "[L3C]", "abundance fitness": "0.016 ± 0.083"}
{"variant": "GAEPANLDDMKVAELKQELKLRSLPVSGTKTELIERLRAYQDQ", "note": "[L3E]", "abundance fitness": "-0.019 ± 0.069"}
{"variant": "GAHPANLDDMKVAELKQELKLRSLPVSGTKTELIERLRAYQDQ", "note": "[L3H]", "abundance fitness": "0.426 ± 0.1"}
{"variant": "GAGPANLDDMKVAELKQELKLRSLPVSGTKTELIERLRAYQDQ", "note": "[L3G]", "abundance fitness": "0.028 ± 0.069"}
{"variant": "GADPANLDDMKVAELKQELKLRSLPVSGTKTELIERLRAYQDQ", "note": "[L3D]", "abundance fitness": "0.512 ± 0.15"}
{"variant": "GANPANLDDMKVAELKQELKLRSLPVSGTKTELIERLRAYQDQ", "note": "[L3N]", "abundance fitness": "0.128 ± 0.12"}
{"variant": "GAKPANLDDMKVAELKQELKLRSLPVSGTKTELIERLRAYQDQ", "note": "[L3K]", "abundance fitness": "-0.171 ± 0.083"}
{"variant": "NALPANLDDMKVAELKQELKLRSLPVSGTKTELIERLRAYQDQ", "note": "[G1N]", "abundance fitness": "-0.205 ± 0.11"}
{"variant": "VALPANLDDMKVAELKQELKLRSLPVSGTKTELIERLRAYQDQ", "note": "[G1V]", "abundance fitness": "-0.384 ± 0.17"}
{"variant": "RALPANLDDMKVAELKQELKLRSLPVSGTKTELIERLRAYQDQ", "note": "[G1R]", "abundance fitness": "-0.165 ± 0.16"}
{"variant": "EALPANLDDMKVAELKQELKLRSLPVSGTKTELIERLRAYQDQ", "note": "[G1E]", "abundance fitness": "-0.303 ± 0.12"}
{"variant": "QALPANLDDMKVAELKQELKLRSLPVSGTKTELIERLRAYQDQ", "note": "[G1Q]", "abundance fitness": "-0.306 ± 0.088"}
{"variant": "AALPANLDDMKVAELKQELKLRSLPVSGTKTELIERLRAYQDQ", "note": "[G1A]", "abundance fitness": "-0.918 ± 0.12"}
{"variant": "SALPANLDDMKVAELKQELKLRSLPVSGTKTELIERLRAYQDQ", "note": "[G1S]", "abundance fitness": "-0.438 ± 0.44"}
{"variant": "DALPANLDDMKVAELKQELKLRSLPVSGTKTELIERLRAYQDQ", "note": "[G1D]", "abundance fitness": "-0.587 ± 0.09"}
{"variant": "CALPANLDDMKVAELKQELKLRSLPVSGTKTELIERLRAYQDQ", "note": "[G1C]", "abundance fitness": "-0.605 ± 0.17"}
